IntAct's records for PubMed 24794231

B1: Cyclin-Y (Homo sapiens), Q8ND76 (parent)
chain: MGNTTSCCVSSSPKLRRNAHSRLESYRPDTDLSREDTGCNLQHISDRENIDDLNMEFNPSDHPRASTIFLSKSQTDVREKRKSLFINHHPPGQIARKYSSCSTIFLDDSTVSQPNLKYTIKCVALAIYYHIKNRDPDGRMLLDIFDENLHPLSKSEVPPDYDKHNPEQKQIYRFVRTLFSAAQLTAECAIVTLVYLERLLTYAEIDICPANWKRIVLGAILLASKVWDDQAVWNVDYCQILKDITVEDMNELERQFLELLQFNINVPSSVYAKYYFDLRSLAEANNLSFPLEPLSRERAHKLEAISRLCEDKYKDLRRSARKRSASADNLTLPRWSPAIIS

Variants of: B1
Conditions: with cul1_human CUL1, Q13616
Sequence of cul1_human CUL1, Q13616 (Q13616 whole entry): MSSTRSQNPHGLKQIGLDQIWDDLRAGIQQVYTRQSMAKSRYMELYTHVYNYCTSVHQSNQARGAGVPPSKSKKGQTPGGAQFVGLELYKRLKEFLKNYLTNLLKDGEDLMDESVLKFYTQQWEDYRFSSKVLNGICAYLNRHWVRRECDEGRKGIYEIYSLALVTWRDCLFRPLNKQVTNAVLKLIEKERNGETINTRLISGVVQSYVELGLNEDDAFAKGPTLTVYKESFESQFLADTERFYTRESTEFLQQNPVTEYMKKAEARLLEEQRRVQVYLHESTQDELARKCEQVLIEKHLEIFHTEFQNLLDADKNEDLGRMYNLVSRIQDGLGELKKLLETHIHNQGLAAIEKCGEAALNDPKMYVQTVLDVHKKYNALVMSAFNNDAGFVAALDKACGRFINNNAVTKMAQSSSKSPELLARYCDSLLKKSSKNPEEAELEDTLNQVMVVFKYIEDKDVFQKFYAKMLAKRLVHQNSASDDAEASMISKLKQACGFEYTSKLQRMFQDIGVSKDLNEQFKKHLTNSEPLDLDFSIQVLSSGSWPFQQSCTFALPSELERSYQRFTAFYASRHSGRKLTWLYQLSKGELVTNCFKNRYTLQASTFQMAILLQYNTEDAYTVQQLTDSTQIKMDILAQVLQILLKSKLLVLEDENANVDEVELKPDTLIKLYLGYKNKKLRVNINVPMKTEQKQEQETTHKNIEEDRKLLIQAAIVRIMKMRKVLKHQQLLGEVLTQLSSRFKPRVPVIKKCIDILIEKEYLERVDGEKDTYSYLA

effect of a mutation on the interaction | Variant
decreasing interaction | MGNTTSCCVSSSPKLRRNAHSRLESYRPDTDLSREDTGCNLQHISDRENIDDLNMEFNPSDHPRASTIFLAKSQTDVREKRKSLFINHHPPGQIARKYSSCSTIFLDDSTVSQPNLKYTIKCVALAIYYHIKNRDPDGRMLLDIFDENLHPLSKSEVPPDYDKHNPEQKQIYRFVRTLFSAAQLTAECAIVTLVYLERLLTYAEIDICPANWKRIVLGAILLASKVWDDQAVWNVDYCQILKDITVEDMNELERQFLELLQFNINVPSSVYAKYYFDLRSLAEANNLSFPLEPLSRERAHKLEAISRLCEDKYKDLRRSARKRSASADNLTLPRWSPAIIS [S71A]

Variants of: B1
Conditions: with cul1_human CUL1, Q13616
Remark: another data set of the same source

effect of a mutation on the interaction | Variant
decreasing interaction | MGNTTSCCVSSSPKLRRNAHSRLESYRPDTDLSREDTGCNLQHISDRENIDDLNMEFNPSDHPRASTIFLSKAQTDVREKRKSLFINHHPPGQIARKYSSCSTIFLDDSTVSQPNLKYTIKCVALAIYYHIKNRDPDGRMLLDIFDENLHPLSKSEVPPDYDKHNPEQKQIYRFVRTLFSAAQLTAECAIVTLVYLERLLTYAEIDICPANWKRIVLGAILLASKVWDDQAVWNVDYCQILKDITVEDMNELERQFLELLQFNINVPSSVYAKYYFDLRSLAEANNLSFPLEPLSRERAHKLEAISRLCEDKYKDLRRSARKRSASADNLTLPRWSPAIIS [S73A]

Variants of: B1
Conditions: with cul1_human CUL1, Q13616
Remark: another data set of the same source

effect of a mutation on the interaction | Variant
disrupting interaction | MGNTTSCCVSSSPKLRRNAHSRLESYRPDTDLSREDTGCNLQHISDRENIDDLNMEFNPSDHPRASTIFLAKAQTDVREKRKSLFINHHPPGQIARKYSSCSTIFLDDSTVSQPNLKYTIKCVALAIYYHIKNRDPDGRMLLDIFDENLHPLSKSEVPPDYDKHNPEQKQIYRFVRTLFSAAQLTAECAIVTLVYLERLLTYAEIDICPANWKRIVLGAILLASKVWDDQAVWNVDYCQILKDITVEDMNELERQFLELLQFNINVPSSVYAKYYFDLRSLAEANNLSFPLEPLSRERAHKLEAISRLCEDKYKDLRRSARKRSASADNLTLPRWSPAIIS [S71A;S73A]
